Test results from article PMC5625703.

Biological target: pGBKT7-53 (control bait)
Test: two-hybrid; β-galactosidase activity assay (Yeast β-galactosidase Assay Kit) on a colony from a DDO plate, 37 °C, OD 420 nm; average of three measurements

pGADT7-T (control prey) (natural protein)
β-galactosidase activity: 401 units
